Consider 8 molecules from paper PMC9427005 (Science (New York, N.y.), 2022).

B1: REGN10933 IgG1 (antibody, V domains shown)
VH: QVQLVESGGGLVKPGGSLRLSCAASGFTFSDYYMSWIRQAPGKGLEWVSYITYSGSTIYYADSVKGRFTISRDNAKSSLYLQMNSLRAEDTAVYYCARDRGTTMVPFDYWGQGTLVTVSS
VL: DIQMTQSPSSLSASVGDRVTITCQASQDITNYLNWYQQKPGKAPKLLIYAASNLETGVPSRFSGSGSGTDFTFTISGLQPEDIATYYCQQYDNLPLTFGGGTKVEIK
notes: IgG1
B2: LY-CoV555 IgG1 (antibody, V domains shown)
VH: QVQLVQSGAEVKKPGSSVKVSCKASGGTFSNYAISWVRQAPGQGLEWMGRIIPILGIANYAQKFQGRVTITADKSTSTAYMELSSLRSEDTAVYYCARGYYEARHYYYYYAMDVWGQGTAVTVSS
VL: not shown
notes: IgG1
B3: CT-P59 IgG1 (antibody, V domains shown)
VH: QITLKESGPTLVKPTQTLTLTCSFSGFSLSTSGVGVGWIRQPPGKALEWLALIDWDDNKYHTTSLKTRLTISKDTSKNQVVLTMTNMDPVDTATYYCARIPGFLRYRNRYYYYGMDVWGQGTTVTVSS
VL: ELVLTQPPSVSAAPGQKVTISCSGSSSNIGNNYVSWYQQLPGTAPKLLIYDNNKRPSGIPDRFSGSKSGTSATLGITGLQTGDEADYYCGTWDSSLSAGVFGGGTELTVL
notes: IgG1
B4: ADI-58125 IgG1 (antibody, V domains shown)
VH: EVQLVESGGGLVKPGGSLRLSCAASGFTFSSYYMNWVRQAPGKGLEWVSSISEDGYSTYYPDSLKGRFTISRDSAKNSLYLQMNSLRADDTAVYYCARDFSGHTAWAGTGFEYWGQGTLVTVSS
VL: QSVLTQPPSVSGAPGQRITISCTGSSSNIGAGYDVHWYQQLPGTAPKLLIYGSSSRNSGVPDRFSGSKSGTSASLAITGLQAEDEADYYCQSYDSSLSVLYTFGTGTKVTVL
notes: IgG1
B5: LY-CoV016 IgG1 (antibody, V domains shown)
VH: EVQLVESGGGLVQPGGSLRLSCAASGFTVSSNYMSWVRQAPGKGLEWVSVIYSGGSTFYADSVKGRFTISRDNSMNTLFLQMNSLRAEDTAVYYCARVLPMYGDYLDYWGQGTLVTVSS
VL: not shown
notes: IgG1
B6: S2X35 IgG (antibody, V domains shown)
VH: QVQLVQSGAEVKKPGASVKVSCKASGYTFTNYGISWVRQAPGQGLEWMGWISAYKGNTNYAQKLQGRVTMTTDTSTSTAYMELRSLRSDDTAVYYCARPDYQVLGYDFWIGYYGMDVWGQGTTVIVSS
VL: QSVLTQPPSVSGAPGQRVTISCTGSSSNIGAGYDVHWYQQLPGTAPKLLIYGNTNRPSGVPDRFSGSKSGTSASLAITGLQAEDEADYYCQSYDSSLSGSEVVFGGGTKLTVL
B7: COV2-2196 IgG1 (antibody, V domains shown)
VH: QMQLVQSGPEVKKPGTSVKVSCKASGFTFMSSAVQWVRQARGQRLEWIGWIVIGSGNTNYAQKFQERVTITRDMSTSTAYMELSSLRSEDTAVYYCAAPYCSSISCNDGFDIWGQGTMVTVSS
VL: not shown
notes: IgG1
B8: REGN10987 IgG1 (antibody, V domains shown)
VH: QVQLVESGGGVVQPGRSLRLSCAASGFTFSNYAMYWVRQAPGKGLEWVAVISYDGSNKYYADSVKGRFTISRDNSKNTLYLQMNSLRTEDTAVYYCASGSDYGDYLLVYWGQGTLVTVSS
VL: QSALTQPASVSGSPGQSITISCTGTSSDVGGYNYVSWYQQHPGKAPKLMIYDVSKRPSGVSNRFSGSKSGNTASLTISGLQSEDEADYYCNSLTSISTWVFGGGTKLTVL
notes: IgG1

The target in the test is SARS-CoV-2 Wuhan-Hu-1 RBD for SPR binding assays (SARS-CoV-2 Wuhan-Hu-1 (NC_045512.2), UniProt P0DTC2). The test is described as follows: SPR. The following applies: both partners purified.
Take B1: the Kd was 0.689 nM, the dissociation rate constant (koff) turned out to be 0.00364 s⁻¹ and the kon came to 5.29e+06 M⁻¹ s⁻¹.
In the same order, the values of B2 are 1.48 nM, 0.00117 s⁻¹ and 792000 M⁻¹ s⁻¹.
For the molecule B3, the dissociation constant Kd came to 0.066 nM, the koff came out at 0.000365 s⁻¹ and the kon is 5.54e+06 M⁻¹ s⁻¹.
In the same order, the values of B4 are below 0.01 nM, 7.17e-08 s⁻¹ and 1.15e+06 M⁻¹ s⁻¹.
The molecule B5 registered a Kd of 13.8 nM. This counts as double-digit nanomolar.
Take B6: binding was characterised by a dissociation constant (Kd) of 0.268 nM, the off-rate constant (koff) was determined as 0.000153 s⁻¹ and the kon came to 570000 M⁻¹ s⁻¹.
In the same order, the values of B7 are 1.09 nM, 0.0124 s⁻¹ and 1.14e+07 M⁻¹ s⁻¹.
B8: the Kd was found to be 12.4 nM. This counts as double-digit nanomolar.

Broadly, the Kd is the concentration at which binding is half-saturated. The low end stands for higher affinity, the high end for lower affinity. For orientation: koff means the rate constant with which the complex falls apart. A word on the kon: it is the rate constant with which the complex forms. Read a high kon as fast association.
